Laboratory results as given in patent US20080281082 (published 2008).
Positions count from the first letter of the chain named. Values belong to the binder of their own block, whether it stands above or below them.

Biological target: Aβ (beta amyloid peptide) (human)
Experiment: SPR

Kd: 2.24 nM
B1: humanized 3D6v2 (antibody, V domains shown)
VH: EVQLLESGGGLVQPGGSLRLSCAASGFTFSNYGMSWVRQAPGKGLEWVASIRSGGGRTYYSDNVKGRFTISRDNSKNTLYLQMNSLRAEDTAVYYCVRYDHYSGSSDYWGQGTLVTVSS
VL: DVVMTQSPLSLPVTPGEPASISCKSSQSLLDSDGKTYLNWLLQKPGQSPQRLIYLVSKLDSGVPDRFSGSGSGTDFTLKISRVEAEDVGVYYCWQGTHFPRTFGQGTKVEIK

Kd: 2.06 nM
B2: humanized 3D6v1 (antibody, V domains shown)
VH: B1 VH with S75A, T78S, V93L
VL: B1 VL with D1Y
